The target of assay [1] is TRAIL-R1/DR4 (human) (UniProt O00220). In words: cell-based or functional assay.
The target in assay [2] is TRAIL-R2/DR5 (human) (UniProt O14763). The experiment in a line: cell-based or functional assay.
UniProt O14763, sequence (O14763 56-440): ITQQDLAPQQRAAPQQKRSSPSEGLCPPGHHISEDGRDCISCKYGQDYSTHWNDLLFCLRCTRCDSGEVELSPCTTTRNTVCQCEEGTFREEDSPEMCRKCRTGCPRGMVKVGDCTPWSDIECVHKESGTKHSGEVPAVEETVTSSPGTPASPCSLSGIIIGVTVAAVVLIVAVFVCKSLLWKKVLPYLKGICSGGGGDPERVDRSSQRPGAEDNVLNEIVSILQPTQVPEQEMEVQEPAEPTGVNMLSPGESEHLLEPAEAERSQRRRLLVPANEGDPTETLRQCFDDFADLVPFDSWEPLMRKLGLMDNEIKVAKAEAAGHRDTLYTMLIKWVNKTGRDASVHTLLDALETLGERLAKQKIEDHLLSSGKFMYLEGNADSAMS

UniProt O00220, sequence (O00220 24-468): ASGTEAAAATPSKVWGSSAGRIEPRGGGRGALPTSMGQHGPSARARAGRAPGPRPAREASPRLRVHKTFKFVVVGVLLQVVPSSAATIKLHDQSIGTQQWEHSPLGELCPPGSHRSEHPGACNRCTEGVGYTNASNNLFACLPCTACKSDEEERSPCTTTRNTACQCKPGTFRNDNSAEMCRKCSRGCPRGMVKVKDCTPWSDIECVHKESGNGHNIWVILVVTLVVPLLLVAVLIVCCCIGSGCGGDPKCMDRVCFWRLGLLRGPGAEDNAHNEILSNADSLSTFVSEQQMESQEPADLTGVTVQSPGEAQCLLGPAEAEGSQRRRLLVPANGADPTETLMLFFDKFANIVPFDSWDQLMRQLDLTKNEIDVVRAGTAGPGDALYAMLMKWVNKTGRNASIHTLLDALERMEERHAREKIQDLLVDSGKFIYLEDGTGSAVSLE

On to “TRAIL (TNF-related apoptosis-inducing ligand)”, for which, in assay [1], the fold increase in induced cell death (MTT, 3 h) of human primary HSCs treated at day 7 versus day 1 turned out to be 4.5 fold; the fold increase in induced cell death (MTT, 3 h) of human primary HSCs treated at day 14 versus day 1 stood at 7.5 fold; the fold increase in induced cell death (MTT, 3 h) of human primary PSCs from day 1 to day 14 worked out at 5.5 fold. Also, in assay [2], the fold increase in induced cell death (MTT, 3 h) of human primary HSCs treated at day 7 versus day 1 is 4.5 fold; the fold increase in induced cell death (MTT, 3 h) of human primary HSCs treated at day 14 versus day 1 worked out at 7.5 fold; the fold increase in induced cell death (MTT, 3 h) of human primary PSCs from day 1 to day 14 came out at 5.5 fold.

Source of the values: patent EP3145530B1.
